Common to all, as to assay: cross-linking
In one experiment the target is T1, Smc3(R1222C) (S. cerevisiae, UniProt P47037 1-1230, R1222C).
T1 sequence (looked up): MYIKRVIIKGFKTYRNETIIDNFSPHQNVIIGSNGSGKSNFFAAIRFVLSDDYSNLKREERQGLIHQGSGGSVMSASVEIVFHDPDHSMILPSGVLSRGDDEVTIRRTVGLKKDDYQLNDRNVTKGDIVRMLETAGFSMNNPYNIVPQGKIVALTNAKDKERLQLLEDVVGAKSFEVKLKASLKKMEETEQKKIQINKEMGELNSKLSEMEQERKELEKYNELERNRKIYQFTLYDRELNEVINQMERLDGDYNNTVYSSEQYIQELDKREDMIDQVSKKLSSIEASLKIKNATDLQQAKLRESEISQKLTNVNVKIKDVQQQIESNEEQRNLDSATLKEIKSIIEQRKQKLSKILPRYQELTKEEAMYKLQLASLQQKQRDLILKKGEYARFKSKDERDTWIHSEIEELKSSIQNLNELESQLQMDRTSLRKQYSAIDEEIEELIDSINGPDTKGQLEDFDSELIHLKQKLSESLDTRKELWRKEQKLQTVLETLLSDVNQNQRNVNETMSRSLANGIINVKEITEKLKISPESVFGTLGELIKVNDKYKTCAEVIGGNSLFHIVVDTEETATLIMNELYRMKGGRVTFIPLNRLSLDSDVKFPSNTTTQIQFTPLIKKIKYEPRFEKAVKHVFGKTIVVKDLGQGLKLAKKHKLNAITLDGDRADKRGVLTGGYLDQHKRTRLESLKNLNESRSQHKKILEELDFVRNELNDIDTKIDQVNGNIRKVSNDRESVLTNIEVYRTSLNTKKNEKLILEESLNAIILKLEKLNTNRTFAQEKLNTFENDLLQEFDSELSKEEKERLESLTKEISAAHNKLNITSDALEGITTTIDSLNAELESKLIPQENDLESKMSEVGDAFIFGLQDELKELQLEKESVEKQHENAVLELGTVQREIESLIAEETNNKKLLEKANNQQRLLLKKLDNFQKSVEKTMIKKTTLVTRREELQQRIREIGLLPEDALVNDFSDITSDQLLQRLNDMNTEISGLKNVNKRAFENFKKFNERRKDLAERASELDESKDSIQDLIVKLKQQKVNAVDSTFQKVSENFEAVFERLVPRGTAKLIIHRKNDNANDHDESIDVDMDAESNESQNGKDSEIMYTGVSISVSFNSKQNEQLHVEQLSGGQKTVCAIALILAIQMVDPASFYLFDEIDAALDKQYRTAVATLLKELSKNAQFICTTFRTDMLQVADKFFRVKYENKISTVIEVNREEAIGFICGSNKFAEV

A further experiment concerns the target T2, acetylated Smc3(R1222C) (S. cerevisiae, UniProt P47037 1-1230, R1222C, acetylated, residues not given).
T2 sequence (looked up): T1 sequence (looked up)

Another experiment addresses T3, Smc3(K160C) (S. cerevisiae, UniProt P47037 1-1230, K160C).
T3 sequence (looked up): T1 sequence (looked up) with K160C, C1222R

For another experiment, the target named is T4, acetylated Smc3(K160C) (S. cerevisiae, UniProt P47037 1-1230, K160C, acetylated, residues not given).
T4 sequence (looked up): T1 sequence (looked up) with K160C, C1222R

Positions count from the first letter of the chain named. Numbers in names are those of the source.

B1: Smc1(N1192C)-HA6 (natural protein, S. cerevisiae, UniProt P32908 1-1225, looked up)
chain: MGRLVGLELSNFKSYRGVTKVGFGESNFTSIIGPNGSGKSNMMDAISFVLGVRSNHLRSNILKDLIYRGVLNDENSDDYDNEGAASSNPQSAYVKAFYQKGNKLVELMRIISRNGDTSYKIDGKTVSYKDYSIFLENENILIKAKNFLVFQGDVEQIAAQSPVELSRMFEEVSGSIQYKKEYEELKEKIEKLSKSATESIKNRRRIHGELKTYKEGINKNEEYRKQLDKKNELQKFQALWQLYHLEQQKEELTDKLSALNSEISSLKGKINNEMKSLQRSKSSFVKESAVISKQKSKLDYIFKDKEKLVSDLRLIKVPQQAAGKRISHIEKRIESLQKDLQRQKTYVERFETQLKVVTRSKEAFEEEIKQSARNYDKFKLNENDLKTYNCLHEKYLTEGGSILEEKIAVLNNDKREIQEELERFNKRADISKRRITEELSITGEKLDTQLNDLRVSLNEKNALHTERLHELKKLQSDIESANNQEYDLNFKLRETLVKIDDLSANQRETMKERKLRENIAMLKRFFPGVKGLVHDLCHPKKEKYGLAVSTILGKNFDSVIVENLTVAQECIAFLKKQRAGTASFIPLDTIETELPTLSLPDSQDYILSINAIDYEPEYEKAMQYVCGDSIICNTLNIAKDLKWKKGIRGKLVTIEGALIHKAGLMTGGISGDANNRWDKEEYQSLMSLKDKLLIQIDELSNGQRSNSIRAREVENSVSLLNSDIANLRTQVTQQKRSLDENRLEIKYHNDLIEKEIQPKITELKKKLDDLENTKDNLVKEKEALQNNIFKEFTSKIGFTIKEYENHSGELMRQQSKELQQLQKQILTVENKLQFETDRLSTTQRRYEKAQKDLENAQVEMKSLEEQEYAIEMKIGSIESKLEEHKNHLDELQKKFVTKQSELNSSEDILEDMNSNLQVLKRERDGIKEDIEKFDLERVTALKNCKISNINIPISSETTIDDLPISSTDNEAITISNSIDINYKGLPKKYKENNTDSARKELEQKIHEVEEILNELQPNARALERYDEAEGRFEVINNETEQLKAEEKKILNQFLKIKKKRKELFEKTFDYVSDHLDAIYRELTKNPNSNVELAGGNASLTIEDEDEPFNAGIKYHATPPLKRFKDMEYLSGGEKTVAALALLFAINSYQPSPFFVLDEVDAALDITNVQRIAAYIRRHRNPDLQFIVISLKCTMFEKSDALVGVYRQQQENSSKIITLDLSNYAE
B1: the cross-linking efficiency with Smc3(R1222C) is 41%; in the experiment with acetylated Smc3(R1222C) it was 3%.

B2: Smc1(S161C)-HA6 (natural protein, S. cerevisiae, UniProt P32908 1-1225, looked up)
chain: B1 chain with S161C, C1192N
For the molecule B2, the cross-linking efficiency in the experiment with Smc3(K160C) worked out at 7%; with acetylated Smc3(K160C), 37%.

The values above are taken from paper doi:10.1101/495762 (bioRxiv, 2018).
